Measurements as given in patent US20100081799A1, “Chelating Agent” (priority 2006, published 2010).

How the values were obtained:
in vivo = assay: in vivo; design: species or system mice; details: female, nude, mouse, iv, 38 uCi, total radioactivity
Experimental: (§1) Animal experiments. Due to its high sst2-somatostatin receptor expression, the rat pancreatic tumor cell line AR42J was used as a tumor model.^55 To establish tumor growth, cells were detached from the surface of the culture flasks using 1 mM EDTA in PBS, centrifuged and re-suspended in serum-free culture medium (RPMI-1640, Biochrom, Berlin, Germany). Concentration of the cell suspension was 3.7×10^6 cells/100 μL serum. Nude mice (female, 6-8 weeks) were injected 100 μL of the cell suspension subcutaneously into the flank.
(§2) For biodistribution studies, mice were intravenously injected 38 μCi [^68Ga]19 (corresponding to 0.15 μg of peptide) in 100 μL PBS into the tail vein. Non-specific tissue accumulation of the radioligand was determined by coinjection of an excess of cold competitor (20 μg Tyr^3-octreotide/mouse). At different time points after radioligand injection (30 and 60 min p.i.) mice (n=5 per time point; n=3 for blocking study at 60 min p.i.) were sacrificed and dissected. The organs of interest were removed, weighed and counted in a […] (Wallach, Turku, Finland). Data are expressed as percent injected dose per gram tissue (% iD/g).

[1] = system: AR42J tumor bearing nude mice; assay: in vivo; details: mouse
Experimental: as §1, §2

[2] = blood concentration of the radioligand

Compound `CC(=NOCC(=O)N[C@H](Cc1ccccc1)C(=O)N[C@H]1CSSC[C@@H](C(=O)N[C@H](C(=O)O)[C@@H](C)O)NC(=O)[C@H]([C@@H](C)O)NC(=O)[C@H](CCCCN)NC(=O)[C@@H](Cc2c[nH]c3ccccc23)NC(=O)[C@H](Cc2ccc(O)cc2)NC1=O)c1ccc(C(C(=O)O)N2CCN(CC(=O)O)CCN(CC(=O)O)CCN(CC(=O)O)CC2)cc1` (stereo partly shown) [[^68Ga]19, metal not drawn] has a tissue uptake at 0.5 h (in vivo; [2]) of 2.37 ± 0.35 %ID/g, a tissue uptake at 1 h (in vivo; [2]) of 1.71 ± 0.17 %ID/g and a tissue uptake at 0.5 h (in vivo; kidney accumulation) of 20 ± 2.4 %ID/g. It also gave a tissue uptake at 1 h (in vivo; kidney accumulation) of 11.9 ± 1.9 %ID/g, a tissue uptake at 0.5 h (in vivo; tumor accumulation) of 7.73 ± 1.52 %ID/g and a tissue uptake at 1 h (in vivo; tumor accumulation) of 7.46 ± 1.3 %ID/g. For the same compound, the “tumor/organ ratios (change)” value [1] was “increasing tumor/organ ratios”.
